Laboratory results as given in patent publication US20040043401A1 (SLOAN KETTERING INSTITUTE FOR CANCER RESEARCH, published 2004).

Biological target: human prostate-specific membrane antigen (PSMA) (human, UniProt Q04609 1-750)
Test: cell-based or functional assay

Chain of human prostate-specific membrane antigen (PSMA) (Q04609 whole entry): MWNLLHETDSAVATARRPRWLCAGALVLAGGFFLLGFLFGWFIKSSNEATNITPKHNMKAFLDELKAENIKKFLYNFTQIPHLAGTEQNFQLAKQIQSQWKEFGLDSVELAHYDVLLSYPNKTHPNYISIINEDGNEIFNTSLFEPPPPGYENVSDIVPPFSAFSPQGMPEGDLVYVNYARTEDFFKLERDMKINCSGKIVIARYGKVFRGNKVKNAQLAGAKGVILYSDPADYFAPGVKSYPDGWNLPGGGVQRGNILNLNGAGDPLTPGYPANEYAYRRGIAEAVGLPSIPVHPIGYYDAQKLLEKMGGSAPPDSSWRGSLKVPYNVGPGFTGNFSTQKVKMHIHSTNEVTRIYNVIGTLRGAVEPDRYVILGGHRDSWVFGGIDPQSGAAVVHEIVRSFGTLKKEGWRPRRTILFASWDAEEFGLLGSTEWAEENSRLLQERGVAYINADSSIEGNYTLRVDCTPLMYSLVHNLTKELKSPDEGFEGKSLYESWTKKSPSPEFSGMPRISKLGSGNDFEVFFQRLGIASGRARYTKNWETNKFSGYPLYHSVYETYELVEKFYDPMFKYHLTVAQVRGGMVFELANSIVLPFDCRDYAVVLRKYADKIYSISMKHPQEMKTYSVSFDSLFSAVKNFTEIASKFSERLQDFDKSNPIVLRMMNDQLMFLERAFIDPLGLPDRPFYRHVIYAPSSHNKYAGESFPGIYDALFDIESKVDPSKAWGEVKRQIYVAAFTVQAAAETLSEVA

B1: P28z fusion receptor (J591 scFv - human CD28 hinge, transmembrane and intracellular portions - intracellular domain of human TCR zeta) (receptor, not shown: a dimerising Fc or GST; small tags and cut ends)
chain: IEVMYPPPYLDNEKSNGTIIHVKGKHLCPSPLFPGPSKPFWVLVVVGGVLACYSLLVTVAFIIFWVRSKRSRLLHSDYMNMTPRRPGPTRKHYQPYAPPRDFAAYRSRVKFSRSADAPAYQQGQNQLYNELNLGRREEYDVLDKRRGRDPEMGGKPRRKNPQEGLYNELQKDKMAEAYSEIGMKGERRRGKGHDGLYQGLSTATKDTYDALHMQALPPR
  expansion in total cell number after re-stimulation with PSMA, seven days: 4 fold
  expansion of transduced T cells on NIH3T3 cells expressing PSMA alone, seven days: 8.6 fold
